In general, Kd refers to the concentration at which binding is half-saturated. A higher Kd goes with a looser complex. For orientation: koff means a measure of how fast the partners let go of each other. Read a high koff as a short-lived complex. In general, kon refers to the rate constant with which the complex forms. A higher kon goes with faster complex formation. One may read the t½ as how long it takes for the measured level to halve. A higher t½ goes with slow loss.

The assay addresses SARS-COV-2 RBD extracellular domain expressed with a C-terminal myc-myc-hexahistidine tag (SARS-COV-2 RBD-mmH) (SARS-CoV-2). Nature of the assay: SPR Biacore, mAb captured on anti-hFc, RBD-mmH analyte, 37 C. For orientation: SPR reads the build-up and loss of mass on a sensor chip optically.

B1: mAb14230 (antibody, V domains shown)
VH: EVQLVESGGGLIQPGRSLRLSCAASGFTFDDYAMHWVRQAPGKGLEWVSGISWNSVSIDYADSVKGRFTISRDNAKNSLYLQMTSLTVEDTALYYCAKAFGYETLTGSDYFAYWGPGTLVTVSS
VL: EIVLTQSPGTLSLSPGERATLSCRASQTVISTYLAWYQQKPGQSPRLLIYGASSRATGIPDRFSGSGSGTDFTLTISRLEPEDFAVYYCQQYGSSPQLTFGGGTKVEIKR
As for B1, the Kd was 7.61 nM, the koff amounted to 0.00876 s⁻¹, the on-rate constant (kon) is 1.15e+06 M⁻¹ s⁻¹ and the t½ was found to be 1.3 min.

B2: mAb14234 (antibody, V domains shown)
VH: QVQLVESGGGVVQPGRSLRLSCAASGFTFSSYGIHWVRQAPGKGLEWVAIIWYDGSEKYYADSVKGRFTISRDNSKNTLFLQMNSLEAEDTAVYYCARGPDLLTGYYNYFYYGMDVWGQGTTVTVSS
VL: QSVLTQPPSVSGAPGQRVTISCTGSSSNIGIGYDVHWYQQLPGTVPKLLIYGNTNRPSGVPDRFSGSKSGTSASLAITGLQAEDEADYYCQSYDSSLSSYVFGTGTKVTVLG
The molecule B2 gave a Kd of 22.3 nM, a koff of 0.0119 s⁻¹, a kon of 534000 M⁻¹ s⁻¹ and a t½ of 1 min.

B3: mAb14280 (antibody, V domains shown)
VH: QVQLVQSGAEVKKPGASVRVSCKASGYTFTGNYIHWVRQAPGQGLEWMAWINPNSGGKNYAQKFQGRVTLTRDTSVNTAYMELSRLRSDDTAMYYCARDVNYNILTGPGGLWGQGTLVTVSS
VL: QSALTQPPSASGSPGQSVTISCTGTSSDVGGYNFVSWYQQHPGKAPKLMIYEVSKRPSGVPDRFSGSKSGNTASLTVSGLQAEDEADYYCSSYAGSNNFVFGTGTKVTVLG
B3 showed a Kd of 16.2 nM, a koff of 0.0248 s⁻¹, a kon of 1.53e+06 M⁻¹ s⁻¹ and a t½ of 0.5 min.

B4: mAb15163 (antibody, V domains shown)
VH: EVQLVETGGGLIQPGESLRLSCAASGFIVSTNYMNWVRQAPGKGLEWVSVIYRGGSTYYADSVKGRFTISRDNSKNTLFLQMNSLRAEDTAVYYCARGHEDFDYDTPASGAFDIWGQGTMVTVSS
VL: QSALTQPPSASGSPGQSVTISCTGTSSDVGGHNYVSWYQQHPGKAPKVMIYEVSKRPSGVPDRFSGSKSGNTASLTVSGLQAEDEADYYCSSYAGSNKFVFGTGTKVTVLG
Take B4: the Kd amounted to 1.78 nM, the koff was found to be 0.000387 s⁻¹, the kon stood at 218000 M⁻¹ s⁻¹ and the t½ is 29.9 min.

B5: mAb14256 (antibody, V domains shown)
VH: QVQLQESGPGLVKPSETLSLTCTVSGGSISSHYWSWIRQPPGKGLEWIGYIYYSGSSNYNPSLKSRVTISVDTSKNQFSLKLNSVTAADTAVYYCARHYDILTGFDWFDPWGQGTLVTVSS
VL: QSVLTQPPSVSGAPGQRVTISCTGSSSNIGTHYDVHWYQQLPGTAPKLLIYGNSNRPSGVPDRFSGSKSGTSASLAITGLQAEDEADYYCQSFDNSLTAPYVFGTGTKVTVLG
Consider B5, for which the Kd worked out at 8.24 nM, the koff turned out to be 0.0115 s⁻¹, the kon was 1.4e+06 M⁻¹ s⁻¹ and the t½ was 1 min.

B6: mAb15162 (antibody, V domains shown)
VH: EVQLVETGGGLIQPGGSLRLSCAASEFIVSRNYMSWVRQAPGKGLEWVSLIYSGGSTYYADSVKGRFTISRDNSKNILYLQMNSLRAEDTAVYYCARDRGGISDYWGQGTLVTVSS
VL: DIQMTQSPSSLSASVGDRVTITCQASQDINKYLNWFQQKPGKAPKLLIYDASNLETGVPSRFSGSGSGTDFTFTISSLQPEDIATYYCQQYDNLPRTFGQGTKLEIKR
In turn, B6 had a Kd of 29.2 nM, a koff of 0.00299 s⁻¹, a kon of 103000 M⁻¹ s⁻¹ and a t½ of 3.9 min.

B7: mAb15160 (antibody, V domains shown)
VH: EVQLVESGGGLVQPGGSLRLSCSASGFTFSRYAMYWVRQAPGKGLEYVSAISSDGGSTYDADSVKGRFTISRANSKNTLYLQMSSLRAEDTAVYYCVKGLRELLYYYYGMDVWGQGTTVTVSS
VL: DIQMTQSPSSLSASVGDRVTITCRAGQSISSFLNWYQQKPGKAPKLLIYAASSLQSGVPSRFSGSGSGTDFTLTISSLQPEDFATYYCQQSYITPFTFGPGTKVDIKR
B7 yielded a Kd of 7.79 nM, a koff of 0.00194 s⁻¹, a kon of 250000 M⁻¹ s⁻¹ and a t½ of 5.9 min.

B8: mAb15156 (antibody, V domains shown)
VH: QLQLQESGPGLVKSSETLSLTCTVSASITGSTYYWGWIRQPPGKGLEWIGSIYYSGTTYYKASLKSRVTISVDTSKNQFSLKLTSVTVADTAVYYCVSHLLGNYHKYGMDVWGQGTTVTVSS
VL: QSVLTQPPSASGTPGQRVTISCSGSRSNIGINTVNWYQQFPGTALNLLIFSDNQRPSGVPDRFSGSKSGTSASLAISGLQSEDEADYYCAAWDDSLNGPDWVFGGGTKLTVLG
The molecule B8 gave a Kd of 14.4 nM, a koff of 0.00535 s⁻¹, a kon of 373000 M⁻¹ s⁻¹ and a t½ of 2.2 min.

B9: mAb15161 (antibody, V domains shown)
VH: EVQLVESGGGLVQPGGSLRLSCAASGFTFSSYEMNWVRQAPGKGLEWVSYISSSGSILYYADSVKGRFTASRDNAKNSLYLQMNSLRAEDTGVYYCARREYQLLRPFEFWGQGTLVTVSS
VL: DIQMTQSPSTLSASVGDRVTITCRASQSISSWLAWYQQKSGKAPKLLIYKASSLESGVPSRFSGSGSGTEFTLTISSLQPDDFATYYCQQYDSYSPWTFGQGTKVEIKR
As to B9, binding was put at a Kd of 3.29 nM, the koff is 0.000866 s⁻¹, the kon turned out to be 263000 M⁻¹ s⁻¹ and the t½ amounted to 13.3 min.

B10: mAb14232 (antibody, V domains shown)
VH: QITLKESGPTLVKPTQTLTLTCTFSGFSLSASGVGVGWIRQPPGKALEWLALIYWDDDKRYSPSLKSRLTITKDTSKNQVVLTMTNMDPVDTATYYCAQHKVATIFDYWGQGTLVTVSS
VL: QSALTQPPSASGSPGQSVTISCTATSSDVGNYNYVSWYQQHPGKAPKLMIYEVTKRPSGVPDRFSGSKSGNTASLTVSGLQAEDEADYYCSSYAGSWGVFGGGTKLTVLG
The molecule B10 showed a Kd of 7.92 nM, a koff of 0.0372 s⁻¹, a kon of 4.69e+06 M⁻¹ s⁻¹ and a t½ of 0.3 min.

B11: mAb15159 (antibody, V domains shown)
VH: EVQLVESGGGLVQPGGSLRLSCAASGITVSSNYMTWVRQAPGKGLEWVSLIYSGGSTFYADSVRGRFTISRDNSKNTLYLQMNSLRAEDTAVYYCARDLVVYGMDVWGQGTTVTVSS
VL: DIQLTQSPSSLSASVGDRVTITCRASQGISSYLAWYQQKPGKAPKLLIYAASTLQSGVPSRFSGSGSGTDFTLTISSLQPEDFATYYCQHLNSDPHTFGQGTKLEIKR
Molecule B11 registered a Kd of 1.21 nM, a koff of 0.000176 s⁻¹, a kon of 146000 M⁻¹ s⁻¹ and a t½ of 65.6 min.

B12: mAb15158 (antibody, V domains shown)
VH: EVQLVESGGGLVQPGGSLRLSCAASGFSFSSNWMSWVRQAPGKGLEWVGNINQDGSEKYYVDSVEGRFTISRDNAKKSLYLQMNSLRAEDTAVYYCARDLGVLWFGDFVDWGQGALVTVSS
VL: DIQMTQSPSSLSASVGDRVTITCRASQAISNSLAWYQQKPGKAPKLLLYAASTLESGVPSRFSGSGSGTDYTLTISSLQPEDFATYYCLQYYGSPRTFGQGTKVEIKR
For the molecule B12, binding was put at a Kd of 1.65 nM, the koff worked out at 0.000207 s⁻¹, the kon was found to be 126000 M⁻¹ s⁻¹ and the t½ was determined as 55.7 min.

B13: mAb14285 (antibody, V domains shown)
VH: QVQLVQSGAEVKKPGASVKVSCKASGYTFTGYFIHWVRQAPGQGLEWMGWISPISGGTNYAQKFQGRVTVTRDTSITTAYMELSRLTSDDTAVYHCAREGGTWKGDFDYWGQGTLVTVSS
VL: QSALTQPASVSGSPGQSITISCTGTSSDVESYNLVSWYQQHPGKAPKLMIYEGSKRPSGVSNRFSGSKSGNTASLTISGLQAEDEADYYCSSYAGSSTWVFGGGTKLTVLG
As for B13, the Kd worked out at 13.1 nM, the koff turned out to be 0.0274 s⁻¹, the kon came to 2.09e+06 M⁻¹ s⁻¹ and the t½ turned out to be 0.4 min.

B14: mAb15164 (antibody, V domains shown)
VH: EVQLVESGGGLVQPGGSLRLSCAASGFAVSSNYMTWVRQAPGKGLEWVATIYSGDSTYYADSVKGRFTISRHNSKNTLSLQMNSLRADDTAIYYCARLSGVLSGTYNGAFDIWGQGTMVTVSS
VL: QSALTQPASVSGSPGQSITISCTGTSSDFGNYNIVSWYQQHPGQAPKVMIYEGNKRPSGVSNRFSGSKSGHTASLTISGLQAEDEADYYCSSYAGSSTWVFGGGTKLTVLG
Turning to B14, the Kd amounted to 6.33 nM, the koff came to 0.00179 s⁻¹, the kon is 283000 M⁻¹ s⁻¹ and the t½ worked out at 6.5 min.

B15: mAb15165 (antibody, V domains shown)
VH: EVQLVESGGGLVQPGGSLRLSCAASGFTVSSNYMSWVRQAPGKGLEWVSAIYSGDSTYYADSVKGRFTISKDNSKNTLYLQMNSLRGEDTAVYYCARLGGALQAYDGAFDYWGQGTLATVSS
VL: QSALTQPASVSGSPGQSITISCTGTSSDFGSYNLVSWYQQHPGKAPKLMIYEGNKRPSGVSIRFSGSKSGNTASLTISGLQAEDEADYYCSSYAGSSTWVFGGGTKLTVLG
As to B15, the affinity, expressed as Kd, was 3.1 nM; the koff is 0.00147 s⁻¹; the kon is 475000 M⁻¹ s⁻¹; the t½ was determined as 7.9 min.

B16: mAb15166 (antibody, V domains shown)
VH: EVQLVESGGGLVQPGGSLRLSCAASGFTVTSNYMSWVRQAPGKGLEWVSAIYSGESTYYADSVKGRFTISRDSSKNTLYLQMNSLRVEDTAVYYCASIHDYSNYVGGFDPWGQGTLVTVSS
VL: QSALTQPASVSGSPGQSITISCTGPSSDFGSYNLVSWYQQHPGKAPKLMIYEGTKRPSGVSNRFSGSKSGNTASLTISGLQAEDEADYYCSSYAGSSTWVFGGGTKLTVLG
Consider B16, for which the equilibrium dissociation constant (Kd) came out at 95.3 nM, the koff amounted to 0.0334 s⁻¹, the kon is 350000 M⁻¹ s⁻¹ and the t½ came to 0.3 min.

B17: mAb15157 (antibody, V domains shown)
VH: EVQLVESGGALVQPGGSLRLSCAASGFPFTIYAMTWVRQAPGKGLEWVSVITGSGDSTYYADSVKGRFTISRDNSKNTLYLQMNSLRAEDTAVYYCVKTGEGFFYYYYGMDVWGQGTTVTVSS
VL: QSVLTQPPSVSAAPGQKVTISCSGSSSNIGNSYISWYQQLPGTAPKLLIYVNNKRPSGIPDRFSGSKSGTSATLGITGLQTGDEADYYCGTWDSSLSAGVFGSGTKVTVLG
For B17, the Kd stood at 11.6 nM, the koff turned out to be 0.00399 s⁻¹, the kon worked out at 344000 M⁻¹ s⁻¹ and the t½ came out at 2.9 min.

B18: mAb14292 (antibody, V domains shown)
VH: EVQLVESGGGLVQPGGSLRLSCVASGFAFSTYEMNWVRQAPGKGLEWVSYISSSGSTIYYADSVKGRLTISRDNVKNSLYLQMNSLRVEDTAIYYCARDAIRNNDILTDPATFDPWGQGTLVTVSS
VL: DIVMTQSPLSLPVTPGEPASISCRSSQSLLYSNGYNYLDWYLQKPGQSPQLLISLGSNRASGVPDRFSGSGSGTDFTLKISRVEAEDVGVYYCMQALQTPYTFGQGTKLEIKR
As for B18, binding was put at a Kd of 60.7 nM, the koff turned out to be 0.0218 s⁻¹, the on-rate (kon) is 359000 M⁻¹ s⁻¹ and the t½ turned out to be 0.5 min.

Source of the values: patent publication US20260069689A1 (Regeneron, published 2026).
